Reference: PMC10397247
Each block holds one binder with its values, some of them ahead of it.

Legend:
O9-bN = biological target: T1, O9-bN; test: two-hybrid library CCNG1; details: mean of both orientations;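 note: natural log of median RNA to DNA barcode read ratio; higher means stronger binding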
T1 chain: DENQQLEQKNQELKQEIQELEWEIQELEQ

4H32-AA = biological target: T2, 4H32-AA; test: two-hybrid library CCmax; details: mean of both orientations;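 note: natural log of median RNA to DNA barcode read ratio; higher means stronger binding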
T2 chain: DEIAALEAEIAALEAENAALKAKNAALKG

4H3413-AA = biological target: T3, 4H3413-AA; test: two-hybrid library CCmax; details: mean of both orientations;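 note: natural log of median RNA to DNA barcode read ratio; higher means stronger binding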
T3 chain: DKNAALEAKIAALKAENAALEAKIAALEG

4H3697-AA = biological target: T4, 4H3697-AA; test: two-hybrid library CCmax; details: mean of both orientations;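 note: natural log of median RNA to DNA barcode read ratio; higher means stronger binding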
T4 chain: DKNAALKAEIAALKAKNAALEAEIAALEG

4H697-AA = biological target: T5, 4H697-AA; test: two-hybrid library CCmax; details: mean of both orientations;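 note: natural log of median RNA to DNA barcode read ratio; higher means stronger binding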
T5 chain: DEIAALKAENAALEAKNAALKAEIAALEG

4H982-AA = biological target: T6, 4H982-AA; test: two-hybrid library CCmax; details: mean of both orientations;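 note: natural log of median RNA to DNA barcode read ratio; higher means stronger binding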
T6 chain: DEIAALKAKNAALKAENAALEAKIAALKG

4H2907-AA = biological target: T7, 4H2907-AA; test: two-hybrid library CCmax; details: mean of both orientations
T7 chain: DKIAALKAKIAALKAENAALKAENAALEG

4H3631-AA = biological target: T8, 4H3631-AA; test: two-hybrid library CCmax; details: mean of both orientations
T8 chain: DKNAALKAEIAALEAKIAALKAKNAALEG

4H3718-AA = biological target: T9, 4H3718-AA; test: two-hybrid library CCmax; details: mean of both orientations
T9 chain: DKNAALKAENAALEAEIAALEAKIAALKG

4H3606-AA = biological target: T10, 4H3606-AA; test: two-hybrid library CCmax; details: mean of both orientations
T10 chain: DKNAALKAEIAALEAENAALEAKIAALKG

4H3588-AA = biological target: T11, 4H3588-AA; test: two-hybrid library CCmax; details: mean of both orientations
T11 chain: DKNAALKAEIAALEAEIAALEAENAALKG

4H3378-AA = biological target: T12, 4H3378-AA; test: two-hybrid library CCmax; details: mean of both orientations
T12 chain: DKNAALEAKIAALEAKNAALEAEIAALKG

4H3056-AA = biological target: T13, 4H3056-AA; test: two-hybrid library CCmax; details: mean of both orientations
T13 chain: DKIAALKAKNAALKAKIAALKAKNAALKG

4H3865-AA = biological target: T14, 4H3865-AA; test: two-hybrid library CCmax; details: mean of both orientations
T14 chain: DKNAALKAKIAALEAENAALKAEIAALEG

4H3162-AA = biological target: T15, 4H3162-AA; test: two-hybrid library CCmax; details: mean of both orientations
T15 chain: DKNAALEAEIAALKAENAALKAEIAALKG

4H2648-AA = biological target: T16, 4H2648-AA; test: two-hybrid library CCmax
T16 chain: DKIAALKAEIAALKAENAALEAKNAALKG

4H340-AA = biological target: T17, 4H340-AA; test: two-hybrid library CCmax; details: mean of both orientations
T17 chain: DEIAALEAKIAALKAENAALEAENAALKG

4H384-AA = biological target: T18, 4H384-AA; test: two-hybrid library CCmax; details: mean of both orientations
T18 chain: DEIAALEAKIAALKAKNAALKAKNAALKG

4H3133-AA = biological target: T19, 4H3133-AA; test: two-hybrid library CCmax; details: mean of both orientations
T19 chain: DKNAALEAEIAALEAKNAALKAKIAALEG

4H454-AA = biological target: T20, 4H454-AA; test: two-hybrid library CCmax; details: mean of both orientations
T20 chain: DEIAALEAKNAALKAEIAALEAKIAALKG

4H2642-AA = biological target: T21, 4H2642-AA; test: two-hybrid library CCmax; details: mean of both orientations
T21 chain: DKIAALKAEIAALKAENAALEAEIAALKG

4H2949-AA = biological target: T22, 4H2949-AA; test: two-hybrid library CCmax; details: mean of both orientations
T22 chain: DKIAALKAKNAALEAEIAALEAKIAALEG

4H2754-AA = biological target: T23, 4H2754-AA; test: two-hybrid library CCmax; details: mean of both orientations
T23 chain: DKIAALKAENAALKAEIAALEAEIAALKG

4H2575-AA = biological target: T24, 4H2575-AA; test: two-hybrid library CCmax; details: mean of both orientations
T24 chain: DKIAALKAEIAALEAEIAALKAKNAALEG

4H678-AA = biological target: T25, 4H678-AA; test: two-hybrid library CCmax; details: mean of both orientations
T25 chain: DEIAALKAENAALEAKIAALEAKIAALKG

4H881-AA = biological target: T26, 4H881-AA; test: two-hybrid library CCmax; details: mean of both orientations
T26 chain: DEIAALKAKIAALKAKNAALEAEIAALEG

4H2837-AA = biological target: T27, 4H2837-AA; test: two-hybrid library CCmax; details: mean of both orientations
T27 chain: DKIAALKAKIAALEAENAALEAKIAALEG

4H2617-AA = biological target: T28, 4H2617-AA; test: two-hybrid library CCmax; details: mean of both orientations
T28 chain: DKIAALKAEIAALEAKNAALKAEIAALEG

4H780-AA = biological target: T29, 4H780-AA; test: two-hybrid library CCmax; details: mean of both orientations
T29 chain: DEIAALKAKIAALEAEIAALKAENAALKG

4H605-AA = biological target: T30, 4H605-AA; test: two-hybrid library CCmax; details: mean of both orientations
T30 chain: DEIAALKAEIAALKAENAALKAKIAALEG

4H429-AA = biological target: T31, 4H429-AA; test: two-hybrid library CCmax; details: mean of both orientations
T31 chain: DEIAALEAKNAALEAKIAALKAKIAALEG

4H2883-AA = biological target: T32, 4H2883-AA; test: two-hybrid library CCmax; details: mean of both orientations
T32 chain: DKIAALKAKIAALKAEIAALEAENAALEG

4H794-AA = biological target: T33, 4H794-AA; test: two-hybrid library CCmax; details: mean of both orientations
T33 chain: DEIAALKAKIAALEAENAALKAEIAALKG

4H335-AA = biological target: T34, 4H335-AA; test: two-hybrid library CCmax; details: mean of both orientations
T34 chain: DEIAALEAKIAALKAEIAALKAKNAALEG

4H3655-AA = biological target: T35, 4H3655-AA; test: two-hybrid library CCmax; details: mean of both orientations
T35 chain: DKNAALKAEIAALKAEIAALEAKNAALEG

4H3844-AA = biological target: T36, 4H3844-AA; test: two-hybrid library CCmax; details: mean of both orientations
T36 chain: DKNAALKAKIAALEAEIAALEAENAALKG

4H717-AA = biological target: T37, 4H717-AA; test: two-hybrid library CCmax; details: mean of both orientations
T37 chain: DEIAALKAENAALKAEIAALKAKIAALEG

4H3427-AA = biological target: T38, 4H3427-AA; test: two-hybrid library CCmax; details: mean of both orientations
T38 chain: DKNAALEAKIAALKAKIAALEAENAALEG

4H342-AA = biological target: T39, 4H342-AA; test: two-hybrid library CCmax; details: mean of both orientations
T39 chain: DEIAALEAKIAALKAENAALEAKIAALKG

4H3627-AA = biological target: T40, 4H3627-AA; test: two-hybrid library CCmax; details: mean of both orientations
T40 chain: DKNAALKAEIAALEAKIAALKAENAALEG

4H2729-AA = biological target: T41, 4H2729-AA; test: two-hybrid library CCmax; details: mean of both orientations
T41 chain: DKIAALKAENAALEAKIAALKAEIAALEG

4H2393-AA = biological target: T42, 4H2393-AA; test: two-hybrid library CCmax; details: mean of both orientations
T42 chain: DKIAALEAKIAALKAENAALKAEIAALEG

4H2505-AA = biological target: T43, 4H2505-AA; test: two-hybrid library CCmax; details: mean of both orientations
T43 chain: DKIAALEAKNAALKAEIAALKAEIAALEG

4H2944-AA = biological target: T44, 4H2944-AA; test: two-hybrid library CCmax; details: mean of both orientations
T44 chain: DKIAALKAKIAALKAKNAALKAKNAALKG

4H3343-AA = biological target: T45, 4H3343-AA; test: two-hybrid library CCmax; details: mean of both orientations
T45 chain: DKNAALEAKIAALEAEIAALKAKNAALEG

4H3921-AA = biological target: T46, 4H3921-AA; test: two-hybrid library CCmax; details: mean of both orientations
T46 chain: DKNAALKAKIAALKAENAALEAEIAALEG

4H2354-AA = biological target: T47, 4H2354-AA; test: two-hybrid library CCmax
T47 chain: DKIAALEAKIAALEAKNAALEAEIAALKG

4H566-AA = biological target: T48, 4H566-AA; test: two-hybrid library CCmax; details: mean of both orientations
T48 chain: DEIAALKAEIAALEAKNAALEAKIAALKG

4H3112-AA = biological target: T49, 4H3112-AA; test: two-hybrid library CCmax; details: mean of both orientations
T49 chain: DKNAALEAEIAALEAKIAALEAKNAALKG

4H993-AA = biological target: T50, 4H993-AA; test: two-hybrid library CCmax; details: mean of both orientations
T50 chain: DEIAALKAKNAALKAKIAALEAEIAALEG

4H906-AA = biological target: T51, 4H906-AA; test: two-hybrid library CCmax; details: mean of both orientations
T51 chain: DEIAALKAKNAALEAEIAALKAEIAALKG

4H317-AA = biological target: T52, 4H317-AA; test: two-hybrid library CCmax; details: mean of both orientations
T52 chain: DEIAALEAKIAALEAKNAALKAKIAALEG

4H48-AA = biological target: T53, 4H48-AA; test: two-hybrid library CCmax; details: mean of both orientations
T53 chain: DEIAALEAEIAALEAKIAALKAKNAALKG

4H2466-AA = biological target: T54, 4H2466-AA; test: two-hybrid library CCmax
T54 chain: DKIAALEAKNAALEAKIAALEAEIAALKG

- interaction score (O9-bN): -1.9
B1: O9-bN (peptide)
chain: DENQQLEQKNQELKQEIQELEWEIQELEQ

- interaction score (4H32-AA): 1.9
- interaction score (4H3413-AA): -1.8
- interaction score (4H3697-AA): -1.06
- interaction score (4H697-AA): -1.14
- interaction score (4H982-AA): -0.309
- interaction score (4H2907-AA): 1.45
- interaction score (4H3631-AA): -0.735
- interaction score (4H3718-AA): -1.35
- interaction score (4H3606-AA): -1.35
- interaction score (4H3588-AA): 0.769
- interaction score (4H3378-AA): -1.8
- interaction score (4H3056-AA): -1.84
- interaction score (4H3865-AA): -1.49
- interaction score (4H3162-AA): -1.38
- interaction score (4H2648-AA): 0.455
- interaction score (4H340-AA): 1.21
- interaction score (4H384-AA): 1.28
- interaction score (4H3133-AA): -0.651
B2: 4H2648-AA (peptide)
chain: DKIAALKAEIAALKAENAALEAKNAALKG

- interaction score (4H454-AA): -0.846
- interaction score (4H2642-AA): -0.757
- interaction score (4H2949-AA): -1.56
- interaction score (4H2754-AA): -1.42
- interaction score (4H2575-AA): -1
- interaction score (4H678-AA): -1.46
- interaction score (4H881-AA): -0.238
- interaction score (4H2837-AA): -0.0493
- interaction score (4H2617-AA): 0.763
- interaction score (4H780-AA): -1.35
- interaction score (4H605-AA): -1.45
- interaction score (4H429-AA): -1.58
- interaction score (4H2883-AA): -1.31
- interaction score (4H794-AA): -1.09
- interaction score (4H335-AA): -1.35
- interaction score (4H3606-AA): -0.995
- interaction score (4H3655-AA): -1.28
- interaction score (4H3844-AA): -1.42
- interaction score (4H717-AA): -1.79
- interaction score (4H3427-AA): -1.67
- interaction score (4H342-AA): 1.11
- interaction score (4H3627-AA): -1.59
- interaction score (4H2729-AA): -1.03
- interaction score (4H2393-AA): -0.967
- interaction score (4H2505-AA): 0.629
- interaction score (4H2944-AA): -1.22
- interaction score (4H3343-AA): -1.47
- interaction score (4H3921-AA): -2.02
- interaction score (4H2354-AA): 2.28
- interaction score (4H566-AA): 0.225
- interaction score (4H3112-AA): -1.26
- interaction score (4H993-AA): -1.38
- interaction score (4H906-AA): -1.21
- interaction score (4H317-AA): 0.391
- interaction score (4H48-AA): -1.39
- interaction score (4H2466-AA): -1.18
B3: 4H2354-AA (peptide)
chain: DKIAALEAKIAALEAKNAALEAEIAALKG
